Ends that are not written are not given here. muFc = mouse Fc fragment of vector pCMV-V5-muFc

The target in assay [1] is T1, scFv-P3F2-Fc (human, UniProt P01857-1 99-330 = IgG part, limits assumed).
T1 construct: domain: Fc fragment; scFv cloned NheI/BamHI into pCMV-V5-Fc, expressed in HEK-293F, protein A purified; also called P3F2 single chain antibody; P3F2 single chain antibod
The experiment in a line: ELISA, scFv-Fc against MSTL-R1B-mFc; x axis con.(nM) [right panel].

Assay [2] addresses T2, scFv-P1A6E-Fc (human, UniProt P01857-1 99-330 = IgG part, limits assumed).
T2 construct: domain: Fc fragment; scFv cloned NheI/BamHI into pCMV-V5-Fc, expressed in HEK-293F, protein A purified; also called P1A6E single chain antibody; antibody-Fc fusion protein scFv-P1A6E-Fc
The experiment in a line: ELISA, scFv-Fc against MSTL-R1B-mFc; x axis con.(nM) [left panel].

For assay [3], the target named is T2, scFv-P1A6E-Fc. The assay is described as follows: ELISA, scFv-Fc against MSLT-R1-mFc; x axis con.(nM), the sheet does not say whose concentration [left panel]. On the technique in general: ELISA stands for enzyme-linked immunosorbent assay.
In assay [4] the target is T1, scFv-P3F2-Fc. The assay is described as follows: ELISA, scFv-Fc against MSLT-R1-mFc; x axis con.(nM), the sheet does not say whose concentration [right panel].
Assay [5] addresses T1, scFv-P3F2-Fc. The assay is described as follows: ELISA on peptide-muFc fusion proteins.
In assay [6] the target is T2, scFv-P1A6E-Fc. The experiment in a line: ELISA on peptide-muFc fusion proteins.
Assay [7] concerns the target T1, scFv-P3F2-Fc. The assay is described as follows: ELISA, scFv-Fc against MSTL-R1A-mFc; x axis con.(nM), the sheet does not say whose concentration [right panel].
Assay [8] deals with T2, scFv-P1A6E-Fc. The experiment in a line: ELISA, scFv-Fc against MSTL-R1A-mFc; x axis con.(nM), the sheet does not say whose concentration [left panel].
Assay [9] has as its target T1, scFv-P3F2-Fc. The assay is described as follows: ELISA, scFv-Fc against MSLT-R3-mFc; x axis con.(nM) [right panel].
Assay [10] concerns the target T2, scFv-P1A6E-Fc. The experiment in a line: ELISA, scFv-Fc against MSLT-R3-mFc; x axis con.(nM) [left panel].
Assay [11] addresses T1, scFv-P3F2-Fc. The assay is described as follows: flow cytometry on PANC-1-MSLN cells, 20 ug/ml antibody, goat anti-human-FITC. As for the experimental part: (§1) Each of antibodies scFv-P1A6E-Fc and scFv-P3F2-Fc was analyzed for binding ability to mesothelin at cell surface by Fluorescence Activated Cell Sorter (FACS) (Guava 8HT, supplied by Millipore).
(§2) 4) antibodies P1A6E and P3F2 to be tested were added into the two experimental groups, respectively, adding antibodies ss and C10 (purchased from Shanghai Rui Jin Biotechnology Co., Ltd.) were added into two positive control groups added as positive controls, and another control group is PBS blank control without antibody. The final concentration of each antibody was 20 μg/ml. 100 μl was added to each tube, and incubated in an ice bath for 45 minutes.

Assay [12] concerns the target T2, scFv-P1A6E-Fc. Described as above. As for the experimental part: as §1, §2
Assay [13] deals with T2, scFv-P1A6E-Fc. The experiment in a line: ELISA, scFv-Fc against MSTL-R1AB-mFc; x axis con.(nM), the sheet does not say whose concentration [left panel].
In assay [14] the target is T1, scFv-P3F2-Fc. The assay is described as follows: ELISA, scFv-Fc against MSTL-R1AB-mFc; x axis con.(nM), the sheet does not say whose concentration [right panel].
Assay [15] concerns the target T2, scFv-P1A6E-Fc. The experiment in a line: ELISA, scFv-Fc against MSLT-R2-mFc; x axis con.(nM) [left panel].
Assay [16] deals with T1, scFv-P3F2-Fc. The experiment in a line: ELISA, scFv-Fc against MSLT-R2-mFc; x axis con.(nM) [right panel].

T2 sequence (P01857 other isoform, or with tags, fused parts or gaps limits assumed): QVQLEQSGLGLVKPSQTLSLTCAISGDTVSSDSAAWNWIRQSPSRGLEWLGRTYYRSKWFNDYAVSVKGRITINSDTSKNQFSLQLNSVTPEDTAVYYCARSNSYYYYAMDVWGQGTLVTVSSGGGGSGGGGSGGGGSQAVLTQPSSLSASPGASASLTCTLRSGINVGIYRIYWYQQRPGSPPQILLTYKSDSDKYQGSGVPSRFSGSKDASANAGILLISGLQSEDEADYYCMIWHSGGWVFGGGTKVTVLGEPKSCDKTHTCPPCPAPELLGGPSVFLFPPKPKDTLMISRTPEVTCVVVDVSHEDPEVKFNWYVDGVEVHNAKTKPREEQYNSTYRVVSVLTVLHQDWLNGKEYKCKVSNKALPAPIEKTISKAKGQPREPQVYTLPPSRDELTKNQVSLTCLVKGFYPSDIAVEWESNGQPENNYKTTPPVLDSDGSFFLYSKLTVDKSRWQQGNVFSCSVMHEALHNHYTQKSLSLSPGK
T1 sequence (P01857 other isoform, or with tags, fused parts or gaps limits assumed): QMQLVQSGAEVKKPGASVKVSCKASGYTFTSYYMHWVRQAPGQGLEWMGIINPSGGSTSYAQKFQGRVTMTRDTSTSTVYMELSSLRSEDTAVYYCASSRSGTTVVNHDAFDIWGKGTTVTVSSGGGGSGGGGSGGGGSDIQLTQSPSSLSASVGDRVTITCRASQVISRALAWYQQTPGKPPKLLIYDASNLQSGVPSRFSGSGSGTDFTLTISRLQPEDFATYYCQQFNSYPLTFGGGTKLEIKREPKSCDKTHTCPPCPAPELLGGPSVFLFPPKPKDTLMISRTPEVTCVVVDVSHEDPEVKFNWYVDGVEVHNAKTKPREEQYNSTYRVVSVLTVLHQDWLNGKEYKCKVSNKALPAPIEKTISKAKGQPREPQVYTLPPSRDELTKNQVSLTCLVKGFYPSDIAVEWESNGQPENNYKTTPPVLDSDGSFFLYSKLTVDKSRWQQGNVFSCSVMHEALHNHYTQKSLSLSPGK

B1: human mesothelin region R1B (328D-369I)-muFc fusion protein (Fc fusion)
chain: DAALLATQMDRVNAIPFTYEQLDVLKHKLDELYPQGYPESVI-muFc
notes: not shown: mouse Fc fragment of vector pCMV-V5-muFc
As for B1, the binding result in [1] and in assay [2] was “no binding (tested: last point just under 100 nM)” throughout.

B2: human mesothelin region R1 (E296-T390)-muFc fusion protein (Fc fusion)
chain: EVEKTACPSGKKAREIDESLIFYKKWELEACVDAALLATQMDRVNAIPFTYEQLDVLKHKLDELYPQGYPESVIQHLGYLFLKMSPEDIRKWNVT
notes: also called region 1; not shown: mouse Fc fragment of vector pCMV-V5-muFc
Regarding B2, the binding result in assay [3] and in assay [4] was “binds” in each case.

YKKWELEACVDAALLATQMDRVNAIPFTYE (Fc fusion, not shown: mouse Fc fragment (muFc)) [mesothelin peptide R1J10-muFc fusion protein]: the binding result in [5] and in [6] was “no binding” in each case.

B3: human mesothelin region R1A (296E-337D)-muFc fusion protein (Fc fusion)
chain: EVEKTACPSGKKAREIDESLIFYKKWELEACVDAALLATQMD
notes: as for B1
Consider B3, for which the binding result in assay [7] and in assay [8] was “binds” each time.

B4: human mesothelin region R3 (N487-G581)-muFc fusion protein (Fc fusion)
chain: NMNGSEYFVKIQSFLGGAPTEDLKALSQQNVSMDLATFMKLRTDAVLPLTVAEVQKLLGPHVEGLKAEERHRPVRDWILRQRQDDLDTLGLGLQG
notes: as for B1
As for B4, the binding result in [9] was “no binding (tested: last point between 100 and 1000 nM)”; in assay [10], “no binding (tested: last point between 100 and 1000 nM)”.

B5: human mesothelin on PANC-1-MSLN cells (other)
chain: APLADYKDDDDKEVEKTACPSGKKAREIDESLIFYKKWELEACVDAALLATQMDRVNAIPFTYEQLDVLKHKLDELYPQGYPESVIQHLGYLFLKMSPEDIRKWNVTSLETLKALLEVNKGHEMSPQVATLIDRFVKGRGQLDKDTLDTLTAFYPGYLCSLSPEELSSVPPSSIWAVRPQDLDTCDPRQLDVLYPKARLAFQNMNGSEYFVKIQSFLGGAPTEDLKALSQQNVSMDLATFMKLRTDAVLPLTVAEVQKLLGPHVEGLKAEERHRPVRDWILRQRQDDLDTLGLGLQGGIPNGYLVLDLSMQEALS
notes: also called mesothelin at cell surface
On to B5, for which the binding result in [11] and in assay [12] was “binds” each time.

B6: human mesothelin region R1AB (296E-359L)-muFc fusion protein (Fc fusion)
chain: EVEKTACPSGKKAREIDESLIFYKKWELEACVDAALLATQMDRVNAIPFTYEQLDVLKHKLDEL
notes: as for B1
On to B6, for which the binding result in assay [13] and in assay [14] was “binds” each time.

B7: human mesothelin region R2 (S391-Q486)-muFc fusion protein (Fc fusion)
chain: SLETLKALLEVNKGHEMSPQVATLIDRFVKGRGQLDKDTLDTLTAFYPGYLCSLSPEELSSVPPSSIWAVRPQDLDTCDPRQLDVLYPKARLAFQ
notes: as for B1
As to B7, the binding result in assay [15] is “no binding (tested: last point between 100 and 1000 nM)”; in assay [16], “no binding (tested: last point between 100 and 1000 nM)”.

The values above are taken from patent US20180244796A1 (CARSGEN THERAPEUTICS, published 2018).
